Values quoted from earlier work in article PMC6389717.

How the values were obtained:
Asp38 = Asp38 (UniProt position 38, DATVEDPVGSE); experiment: kinetics (per the article's general statement only; no method given for this value); conditions: presumed enzyme-substrate complex (general statement of the article); not given
Lys39 = Lys39 (UniProt position 39, IMAVVKANAYG); experiment: kinetics; conditions: enzyme-substrate complex (alanine-bound active site, external aldimine)

Substance | pKa (Asp38) | pKa (Lys39)
Ketosteroid isomerase (3-oxo-Delta5-steroid isomerase) (not stated in the article (inferred: Comamonas testosteroni, formerly Pseudomonas testosteroni)) | 4.6 | –
Alanine racemase (not stated in the article (inferred: Geobacillus stearothermophilus, formerly Bacillus stearothermophilus)) | – | 7.4
